Common to all, as to test: two-hybrid library CCmax;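 note: natural log of median RNA to DNA barcode read ratio; higher means stronger binding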
One assay deals with T1, Core_NNNN-es_KKEE.
T1 chain: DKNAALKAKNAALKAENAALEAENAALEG
Conditions: mean of both orientations.

The target of a further assay is GCN2_T.
The target in another assay is T2, 4H2600-AA.
T2 chain: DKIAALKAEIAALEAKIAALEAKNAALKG
Conditions: mean of both orientations.

The next assay concerns the target T3, 4H535-AA.
T3 chain: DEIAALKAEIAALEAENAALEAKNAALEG
The settings on record: mean of both orientations.

The next assay deals with 4H_GCN4.
Sequence of 4H_GCN4 (chain, as listed by the source): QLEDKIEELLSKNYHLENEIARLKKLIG
Another assay addresses T4, 4H58-AA.
T4 chain: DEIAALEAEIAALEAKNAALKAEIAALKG
Conditions: mean of both orientations.

In another assay the target is T5, 4H1802-AA.
T5 chain: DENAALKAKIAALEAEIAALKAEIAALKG
Conditions: mean of both orientations.

The target in another assay is T6, 4H140-AA.
T6 chain: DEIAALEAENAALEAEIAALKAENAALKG
The settings on record: mean of both orientations.

The target in a further assay is T7, 4H3782-AA.
T7 chain: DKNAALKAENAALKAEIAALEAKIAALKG
Conditions: mean of both orientations.

For a further assay, the target named is T8, 4H486-AA.
T8 chain: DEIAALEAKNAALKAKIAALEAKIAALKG
The settings on record: mean of both orientations.

Another assay has as its target T9, 4H3651-AA.
T9 chain: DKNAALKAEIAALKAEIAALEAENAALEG
The settings on record: mean of both orientations.

The target of a further assay is T10, 4H2750-AA.
T10 chain: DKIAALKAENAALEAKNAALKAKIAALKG
The settings on record: mean of both orientations.

The next assay deals with T11, 4H895-AA.
T11 chain: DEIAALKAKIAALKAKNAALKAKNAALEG
The settings on record: mean of both orientations.

Another assay deals with T12, 4H1136-AA.
T12 chain: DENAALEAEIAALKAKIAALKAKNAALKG
Conditions: mean of both orientations.

A further assay addresses T13, 4H465-AA.
T13 chain: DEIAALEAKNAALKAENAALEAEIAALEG
Conditions: mean of both orientations.

Another assay has as its target T14, 4H_APH.
T14 chain: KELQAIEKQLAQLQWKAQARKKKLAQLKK
Conditions: mean of both orientations.

A further assay addresses T15, 4H355-AA.
T15 chain: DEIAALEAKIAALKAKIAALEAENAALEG
Conditions: mean of both orientations.

Another assay concerns the target T16, 4H2898-AA.
T16 chain: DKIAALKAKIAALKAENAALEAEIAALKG
Conditions: mean of both orientations.

The next assay deals with T17, 4H1257-AA.
T17 chain: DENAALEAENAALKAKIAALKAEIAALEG
Conditions: mean of both orientations.

A further assay concerns the target T18, 4H3365-AA.
T18 chain: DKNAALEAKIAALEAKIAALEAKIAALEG
Conditions: mean of both orientations.

For the next assay, the target named is T19, 4H1110-AA.
T19 chain: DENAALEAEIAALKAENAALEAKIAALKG

The target in another assay is T20, 4H2721-AA.
T20 chain: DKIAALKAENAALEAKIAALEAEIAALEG
Conditions: mean of both orientations.

A further assay has as its target T21, 4H3020-AA.
T21 chain: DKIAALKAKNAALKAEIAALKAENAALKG
The settings on record: mean of both orientations.

Another assay has as its target T22, 4H3705-AA.
T22 chain: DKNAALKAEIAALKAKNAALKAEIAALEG
The settings on record: mean of both orientations.

Another assay deals with T23, 4H_BCR.
T23 chain: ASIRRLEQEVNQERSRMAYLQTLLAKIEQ
The settings on record: mean of both orientations.

Consider DENAALEAENAALEAKNAALKAKNAALKG [Core_NNNN-es_EEKK], for which the interaction score with Core_NNNN-es_KKEE came to 0.234.

With DENAALEAEIAALKAENAALEAKIAALKG [4H1110-AA], the interaction score with GCN2_T is -0.988; in the assay with 4H2600-AA, -1.01; with 4H535-AA, -1.39; with 4H_GCN4, -0.932; with 4H58-AA, 1.28; with 4H1802-AA, -1.32. Moreover, the interaction score in the assay with 4H140-AA is -1.14; with 4H3782-AA, -0.707; in the assay with 4H486-AA, 1.93; in the assay with 4H3651-AA it was -1.2; in the assay with 4H2750-AA, -0.176; in the assay with 4H895-AA, 0.133. Further, the interaction score was -1.36 in the assay with 4H1136-AA; -1.11 in the assay with 4H465-AA; -1.53 in the assay with 4H_APH; -0.0666 with 4H355-AA; 1.96 with 4H2898-AA; -0.798 with 4H1257-AA. The interaction score was -1.2 in the assay with 4H3365-AA; 0.405 with 4H1110-AA; -0.718 with 4H2721-AA; 1.51 with 4H3020-AA; 2.63 with 4H3705-AA; 0.0686 in the assay with 4H_BCR.

(Values after paper PMC10397247.)
